Reference: PMC12444563 (ACS Omega, 2025)
Like-named read-outs stand apart in the source and are kept apart here. Starred links: 1 amine or outer side, 2 acyl side, 3 side chain; linkers in the order of their positions; H or OH if unused. Non-standard residues stand in square brackets, D forms with d. Residues, ends and D or L forms follow the SMILES beside them. *: point of attachment. Paclitaxel(2'-OCO-DMEDA) = CC(=O)O[C@H]1C(=O)[C@@]2(C)[C@H]([C@H](OC(=O)c3ccccc3)[C@]3(O)C[C@H](OC(=O)[C@H](OC(=O)N(C)CCN(C)*)[C@@H](NC(=O)c4ccccc4)c4ccccc4)C(C)=C1C3(C)C)[C@]1(OC(C)=O)CO[C@@H]1C[C@@H]2O; Fmoc = O=C(OCC1c2ccccc2-c2ccccc21)*; PABC = O=C(OCc1ccc(N[*:1])cc1)[*:2]

Assays:
[1] = pH stability assay (buffers pH 5.4 and 7.4, UHPLC-HRMS); format: physicochemical; settings: 37 °C, average of two replicates
Protocol: The pH stability assay was performed by incubating compounds 1–4 at 37 °C in buffers at pH 5.4 and 7.4 under gentle shaking conditions. More specifically, a solution of 20 mM AcONa and 1 mM EDTA in mQ water was used as a pH 5.4 buffer. A solution of PBS tablets in mQ water was used as a pH 7.4 buffer. A 1 mM stock solution of compounds 1–4 in dry DMSO was prepared and a […] solution was then obtained by dilution of 5.85 μL of the stock solution in 44.15 μL of dry DMSO. Then, 6 μL of the […] compound solution was diluted into 135 μL of the desired buffer, and the solution was incubated at 37 °C under gently shaking conditions. Samples aliquots (10 μL) were taken out at 15, 30 min and 1, 2, and 4 h and quenched with 10 μL of acetonitrile. The solutions were then injected in UHPLC-HRMS to monitor the stability of compounds 1–4 under different pH conditions. UHPLC-MS analyses were carried out as previously described for the Cathepsin B cleavage assay. The percentage of the residual compound was calculated as described above.
The stability of compounds 1–4 and of the free drug PTX was evaluated in vitro by UHPLC-Orbitrap analysis incubating the samples at 37 °C in buffer solutions at pH 5.4, to simulate the pH inside the cancer cells, and at physiological pH 7.4. The same buffer of the Cathepsin B cleavage assay was used for the test at pH 5.4. The percentage of residual compounds 1–4 was measured over time by calculating the ratio between the areas of the peak of the full compound at the desired time point and at time zero, and the results were compared with the percentage of residual compounds 1–4 calculated during the Cathepsin B cleavage assay (Tables S6).

[2] = molecular target: T1, bovine spleen Cathepsin B (Bos taurus, UniProt P07688); experiment: Preliminary Cathepsin B cleavage assay for protocol validation, HPLC vs UHPLC-HRMS; format: biochemical; settings: for % residual compound, HRMS: UHPLC-HRMS (Orbitrap) detection; for % residual compound, HPLC: analytical HPLC detection
T1 construct: bovine spleen Cathepsin B (SigmaAldrich C6286, ≥10 units/mg protein); purchased SigmaAldrich C6286; host or cells: bovine spleen (tissue-derived)
Protocol: The Cathepsin B cleavage assay was performed by incubating compounds 1–4 at 37 °C under gently shaking conditions in the presence of the active form of Cathepsin B. More specifically, 122.4 μL of an enzyme-activating solution (composed of 7.48 mg of L-cysteine dissolved in 2 mL of a buffer solution containing 20 mM NaOAc, 1 mM EDTA, pH 5.4 to give a final cysteine concentration of 30.88 mM) was mixed with 12.6 μL of enzyme stock solution, previously prepared by solubilization of bovine spleen Cathepsin B (SigmaAldrich C6286, ≥10 units/mg protein) in 1 mL of buffer solution (without cysteine) to give a concentration of enzyme stock solution of 12 units/mL. After the dilution, the final concentration of Cathepsin B was 1.12 u/mL. Then, the diluted enzyme solution was incubated at 37 °C for 15 min to activate Cathepsin B. After 15 min, 6 μL of 117 μM compound solution, previously prepared by diluting 5.85 μL of 1 mM stock solution of the compound in 44.15 μL of dry DMSO (giving a 117 μM solution), was added to the test tube and the cleavage assay solution was incubated at 37 °C under gentle shaking conditions. Sample aliquots (10 μL) were taken out at 15, 30 min, and 1, 2, 4, and 24 h and quenched with 10 μL of MeOH+1% formic acid. The solutions were then centrifuged for 10 min at 6000 rpm. Blank solutions were prepared for each compound by dilution of 6 μL of a 117 μM compound solution into 135 μL of an enzyme-activating solution. UHPLC-MS analyses were carried out using a Vanquish UHPLC System (Thermo Fisher Scientific) and Orbitrap Exploris 120 (Thermo Fisher Scientific). Thermo Scientific Xcalibur software was used to control the instruments and acquire the data. Freestyle 1.8 software was used for processing the data. UHPLC chromatographic separations were performed on a reversed-phase column Accucore C18 50 × 2.1 mm, 2.6 μm (Thermo Fisher Scientific). A gradient system was used with the mobile phase consisting of solvent A: H2O + 0.05% formic acid and solvent B: acetonitrile. The areas of the peak of compounds 1–4 in the extracted ion chromatogram were used to evaluate the kinetics of the cleavage process. The percentage of residual compound was calculated as the ratio between the areas of the peak of the full compound at the desired time point and in the blank analysis. %Residualcompound=areacompoundatthedesiredtimepoint/areacompoundintheblanksolution×100
Based on the similarity of the Cathepsin B recognized sequence GFLG to GPLG, we inferred that the latter could also be recognized by the same lysosomal enzyme. Therefore, a Cathepsin B cleavage assay for compound 1 was planned, and the experiment was designed to focus on a short incubation time (up to 4 h) to better mimic the fast transient and dynamic environment of drug clearance and activation generally occurring in in vivo conditions. An Orbitrap mass analyzer was chosen to analyze the final incubated solution due to its higher sensitivity compared to traditional HPLC methods, thereby allowing precise evaluation of the drug release kinetics even at low compound concentrations. At first, to validate the designed Orbitrap-protocol over the HPLC protocols generally reported in the literature, we initially performed the cleavage assay on compound 4 containing the VA sequence, for which the recognition by the Cathepsin B enzyme is well documented. ,− For instance, compound 4 was incubated at 37 °C with a sodium acetate buffer solution (final concentration of 4: 5 μM) containing the active form of the Cathepsin B enzyme, and diluted aliquots at 0–30–60–120 and 240 min were collected and analyzed by a UHPLC-Orbitrap instrument and, in parallel, by analytical HPLC. As shown in Figure S26 of the Supporting Information, the degradation of the VA-based compound 4 can be appreciated from both analyses; however, an expected remarkable difference between the two methods was noted regarding the final concentration of the compound 4 at the end of the experiment. […]

[3] = PBS pH 7.4, pH 7.4 PBS, 30 min, read-out: Stability pH 7.4, % residual compound
[4] = acetate/EDTA buffer pH 5.4, pH 5.4 buffer, 120 min, read-out: Stability pH 5.4, % residual compound
[5] = acetate/EDTA buffer pH 5.4, pH 5.4 buffer, 240 min (4 h), read-out: Stability pH 5.4, % residual compound

Row | Compound | remaining at 0.5 h, 4.98 µM [1, 3] | Stability pH 5.4, % residual compound ([1]; pH 5.4 buffer, 30 min) | Stability pH 5.4, % residual compound ([1]; pH 5.4 buffer, 240 min (4 h)) | Stability pH 7.4, % residual compound ([1]; pH 7.4 PBS, 120 min) | Stability pH 7.4, % residual compound ([1]; pH 7.4 PBS, 240 min) | remaining at 2 h, 4.98 µM [1, 4] | remaining at 4 h, 4.98 µM [1, 5] | also measured
1 | CC(=O)O[C@H]1C(=O)[C@@]2(C)[C@H]([C@H](OC(=O)c3ccccc3)[C@]3(O)C[C@H](OC(=O)[C@H](OC(=O)N(C)CCN(C)C(=O)OCc4ccc(NC(=O)CNC(=O)[C@H](CC(C)C)NC(=O)[C@@H]5CCCN5C(=O)CNC(=O)OCC5c6ccccc6-c6ccccc65)cc4)[C@@H](NC(=O)c4ccccc4)c4ccccc4)C(C)=C1C3(C)C)[C@]1(OC(C)=O)CO[C@@H]1C[C@@H]2O [Compound 1, Fmoc-GPLG-PABC-diamine-PTX] (Fmoc-GPLG[PABC]-{Paclitaxel(2'-OCO-DMEDA)}) | 115% | 93.60% | 93.78% | 97.00% | 113.04% | – | – | Stability pH 5.4, % residual compound ([1]; pH 5.4 buffer, 120 min): 93.87%
2 | CC(=O)O[C@H]1C(=O)[C@@]2(C)[C@H]([C@H](OC(=O)c3ccccc3)[C@]3(O)C[C@H](OC(=O)[C@H](OC(=O)N(C)CCN(C)C(=O)OCc4ccc(NC(=O)CNC(=O)[C@H](CC(C)C)NC(=O)[C@H](Cc5ccccc5)NC(=O)CNC(=O)OCC5c6ccccc6-c6ccccc65)cc4)[C@@H](NC(=O)c4ccccc4)c4ccccc4)C(C)=C1C3(C)C)[C@]1(OC(C)=O)CO[C@@H]1C[C@@H]2O [Compound 2, Fmoc-GFLG-PABC-diamine-PTX] (Fmoc-GFLG[PABC]-{Paclitaxel(2'-OCO-DMEDA)}) | 90.6% | 92.49% | – | – | 91.99% | 85.4% | 86.8% | remaining at 2 h, 4.98 µM ([1]; PBS pH 7.4, pH 7.4 PBS, 120 min, read-out: Stability pH 7.4, % residual compound): 90.5%
3 | CC(=O)O[C@H]1C(=O)[C@@]2(C)[C@H]([C@H](OC(=O)c3ccccc3)[C@]3(O)C[C@H](OC(=O)[C@H](OC(=O)N(C)CCN(C)C(=O)OCc4ccc(NC(=O)[C@H](CCCNC(N)=O)NC(=O)[C@@H](NC(=O)OCC5c6ccccc6-c6ccccc65)C(C)C)cc4)[C@@H](NC(=O)c4ccccc4)c4ccccc4)C(C)=C1C3(C)C)[C@]1(OC(C)=O)CO[C@@H]1C[C@@H]2O [Compound 3, Fmoc-VCit-PABC-diamine-PTX] | – | 96.15% | – | 95.93% | – | – | – | remaining at 4 h, 4.98 µM ([1]; PBS pH 7.4, pH 7.4, pH 7.4 PBS, 240 min, read-out: Stability pH 7.4, % residual compound): 92%; remaining at 2 h, 4.98 µM ([1]; acetate/EDTA buffer pH 5.4, pH 5.4, pH 5.4 buffer, 120 min, read-out: Stability pH 5.4, % residual compound): 96.6%; remaining at 4 h, 4.98 µM ([1]; acetate/EDTA buffer pH 5.4, pH 5.4, pH 5.4 buffer, 240 min (4 h), read-out: Stability pH 5.4, % residual compound): 89.9%; Stability pH 7.4, % residual compound ([1]; pH 7.4 PBS, 30 min): 95.79%
4 | CC(=O)O[C@H]1C(=O)[C@@]2(C)[C@H]([C@H](OC(=O)c3ccccc3)[C@]3(O)C[C@H](OC(=O)[C@H](OC(=O)N(C)CCN(C)C(=O)OCc4ccc(NC(=O)[C@H](C)NC(=O)[C@@H](NC(=O)OCC5c6ccccc6-c6ccccc65)C(C)C)cc4)[C@@H](NC(=O)c4ccccc4)c4ccccc4)C(C)=C1C3(C)C)[C@]1(OC(C)=O)CO[C@@H]1C[C@@H]2O [Compound 4, Fmoc-VA-PABC-diamine-PTX] | 94.7% | – | 47.4% | 96.21% | 95.00% | 52.5% | 47.5% | % residual compound, HRMS ([2]; 30 min with Cathepsin B): 73.35%; % residual compound, HRMS ([2]; 60 min with Cathepsin B): 68.45%; % residual compound, HRMS ([2]; 120 min with Cathepsin B): 65.40%; % residual compound, HRMS ([2]; 240 min (4 h) with Cathepsin B): 63.70%; % residual compound, HPLC ([2]; 30 min with Cathepsin B): 25.11%; % residual compound, HPLC ([2]; 60 min with Cathepsin B): 20.48%; % residual compound, HPLC ([2]; 120 min with Cathepsin B): 13.68%; remaining at 0.5 h, 4.98 µM ([1]; acetate/EDTA buffer pH 5.4, pH 5.4 buffer, 30 min, read-out: Stability pH 5.4, % residual compound): 90.8%
